Assay results taken from article PMC7060085 (ACS applied materials & interfaces, 2019).

Molecular target: the molecule itself
Test: SEC

B1: Physalis mottle virus (PhMV) virus-like particle, native (unmodified recombinant coat protein) (natural protein)
chain: MDSSEVVKVKQASIPAPGSILSQPNTEQSPAIVLPFQFEATTFGTAETAAQVSLQTADPITKLTAPYRHAQIVECKAILTPTDLAVSNPLTVYLAWVPANSPATPTQILRVYGGQSFVLGGAISAAKTIEVPLNLDSVNRMLKDSVTYTDTPKLLAYSRAPTNPSKIPTASIQISGRIRLSKPMLIAN
  binding result: binds
